From PMC10548220, “Development and evaluation of nanobody tracers for noninvasive nuclear imaging of the immune-checkpoint TIGIT” (Frontiers in Immunology, 2023)

Tests used:
Conditions in all cases: both partners purified
[1] = target: T1, recombinant human TIGIT-Fc carrier-free protein (Homo sapiens (Human)., UniProt Q495A1); assay: SPR; Biacore T200; recombinant m/hTIGIT-Fc immobilised on a CM5 chip; Nbs injected, eight two-fold dilutions from 200 nM, 10 µl/min, 25°C; HBS pH 7.4 (0.01 M HEPES, 0.15 M NaCl, 3 mM EDTA, 0.005% Tween 20); fit 1:1 binding with drift and RI2
T1 construct: T cell Ig and ITIM domain receptor (TIGIT), human; also called hTIGIT-Fc; recombinant hTIGIT; source: bought: Biolegend

[2] = target: T2, recombinant human TIGIT-Fc carrier-free protein (Homo sapiens (Human)., UniProt Q495A1-1); assay: SPR; Biacore T200; m/hTIGIT-Fc (10 µg/mL in 10 mM Na-acetate pH 4.0) immobilised on a CM5 chip; Nbs or scFv injected in two-fold dilutions from 200 nM, 10 µl/min, 25°C; HBS pH 7.4 (0.01 M HEPES, 0.15 M NaCl, 3 mM EDTA, 0.005% Tween 20); fit 1:1 binding with drift and RI2
T2 construct: T cell Ig and ITIM domain receptor (TIGIT), human; also called hTIGIT-Fc; human TIGIT recombinant protein; source: bought: Biolegend (Cat. No. 768608)

[3] = target: T3, recombinant mouse TIGIT-Fc carrier-free protein (Mus musculus, UniProt A0A0B4J1G6); assay: SPR; Biacore T200; recombinant m/hTIGIT-Fc immobilised on a CM5 chip; Nbs injected, eight two-fold dilutions from 200 nM, 10 µl/min, 25°C; HBS pH 7.4 (0.01 M HEPES, 0.15 M NaCl, 3 mM EDTA, 0.005% Tween 20); fit 1:1 binding with drift and RI2
T3 construct: T cell Ig and ITIM domain receptor (TIGIT), mouse; also called mTIGIT-Fc; recombinant mTIGIT; source: bought: Biolegend
T3 sequence (P86176 29-148): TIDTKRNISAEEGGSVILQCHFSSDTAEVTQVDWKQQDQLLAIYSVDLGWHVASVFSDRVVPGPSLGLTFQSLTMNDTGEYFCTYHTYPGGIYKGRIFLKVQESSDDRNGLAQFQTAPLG

[4] = target: T4, recombinant mouse TIGIT-Fc carrier-free protein (Mus musculus, UniProt A0A0B4J1G6); assay: SPR; Biacore T200; m/hTIGIT-Fc (10 µg/mL in 10 mM Na-acetate pH 4.0) immobilised on a CM5 chip; Nbs or scFv injected in two-fold dilutions from 200 nM, 10 µl/min, 25°C; HBS pH 7.4 (0.01 M HEPES, 0.15 M NaCl, 3 mM EDTA, 0.005% Tween 20); fit 1:1 binding with drift and RI2
T4 construct: T cell Ig and ITIM domain receptor (TIGIT), mouse; also called mTIGIT-Fc; mouse TIGIT recombinant protein; source: bought: Biolegend (Cat. No. 771808)
T4 sequence (P86176 29-148): as above

T2 sequence (Q495A1 22-141): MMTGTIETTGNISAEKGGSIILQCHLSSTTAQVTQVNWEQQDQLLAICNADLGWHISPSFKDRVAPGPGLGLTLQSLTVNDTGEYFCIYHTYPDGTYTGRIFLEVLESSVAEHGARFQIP
T1 sequence (Q495A1 22-141): as above

Kd [3] | koff [4] | kon [4] | Binder | further results
– | – | – | anti-hTIGIT nanobody 17018 (VHH, Cloned into pHen6 after PCR with primers A6E and PMCF; also called Nb 17018; source: E. coli WK6, periplasmic extract, purified (Ni-NTA, SEC); not shown: His6, C-terminal, kept) VHH: QVQLQESGGGLVQAGGSLRLSCTASSIFSINAMGWYRQTPGKQRELVARITNGSSTNYADSVKGRFTISRDNAKNTVYLQMNSLKPEDTAVYYCHTDLLLEVGAMRYWGQGTQVTVSS | Kd [1]: 0.47 ± 0.002 nM
– | – | – | anti-hTIGIT Nb 17018 (VHH, nanobody from an immunized llama; Cloned in pHen6 after PCR with primers A6E and PMCF; source: E. coli WK6, periplasmic extract, purified (Ni-NTA, SEC); not shown: His6, C-terminal, kept) VHH: QVQLQESGGGLVQAGGSLRLSCTASSIFSINAMGWYRQTPGKQRELVARITNGSSTNYADSVKGRFTISRDNAKNTVYLQMNSLKPEDTAVYYCHTDLLLEVGAMRYWGQGTQVTVSS | koff [2]: 0.000496 s⁻¹; kon [2]: 1.06e+06 M⁻¹ s⁻¹
0.157 ± 0.001 nM | – | – | anti-mTIGIT nanobody 16966 (VHH, Cloned into pHen6 after PCR with primers A6E and PMCF; labelled with 99mTc on the His6 tag for the in vivo work; also called Nb 16966; source: E. coli WK6, periplasmic extract, purified (Ni-NTA, SEC); not shown: His6, C-terminal, kept) VHH: QVQLQESGGGSVRPGESLRLSCAASSDSSITGMDWYRQAPGKQREWVATITRNNITIYGASVKGRFTVSRDNVKNTWYLQMNSLKPEDTAVYYCTYRGNWGQGTQVTVSS | –
– | 0.00257 s⁻¹ | 1.64e+07 M⁻¹ s⁻¹ | anti-mTIGIT Nb 16966 (VHH, nanobody from an immunized llama; Cloned in pHen6 after PCR with primers A6E and PMCF; source: E. coli WK6, periplasmic extract, purified (Ni-NTA, SEC); not shown: His6, C-terminal, kept) VHH: QVQLQESGGGSVRPGESLRLSCAASSDSSITGMDWYRQAPGKQREWVATITRNNITIYGASVKGRFTVSRDNVKNTWYLQMNSLKPEDTAVYYCTYRGNWGQGTQVTVSS | –
– | 0.000738 s⁻¹ | 7.06e+06 M⁻¹ s⁻¹ | anti-mTIGIT Nb 16988 (VHH, nanobody from an immunized llama; Cloned in pHen6 after PCR with primers A6E and PMCF; source: E. coli WK6, periplasmic extract, purified (Ni-NTA, SEC); not shown: His6, C-terminal, kept) VHH: QVQLQESGGGLVQAGGSLRLSCAASSVSSITGMDWYRQAPGKQREWVATITRNNIAMYGASVKGRFTVSRDDAKNTWYLQMNSLKPEDTAVYYCTYHGNWGQGTQVTVSS | –
– | 0.00113 s⁻¹ | 7.46e+06 M⁻¹ s⁻¹ | anti-mTIGIT Nb 16972 (VHH, nanobody from an immunized llama; Cloned in pHen6 after PCR with primers A6E and PMCF; source: E. coli WK6, periplasmic extract, purified (Ni-NTA, SEC); not shown: His6, C-terminal, kept) VHH: QVQLQESGGGLVQTGESLRLSCAASSVSSITGMDWYRQAPGKQREWVATITRNNIAMYGASVKGRFTVSRDNAKNTWYLQMNSLKPEDTAVYYCTYRGNWGQGTQVTVSS | –
0.104 ± 0.001 nM | – | – | anti-mTIGIT nanobody 16988 (VHH, Cloned into pHen6 after PCR with primers A6E and PMCF; labelled with 99mTc on the His6 tag for the in vivo work; also called lead anti-mTIGIT Nb; source: E. coli WK6, periplasmic extract, purified (Ni-NTA, SEC); not shown: His6, C-terminal, kept) VHH: QVQLQESGGGLVQAGGSLRLSCAASSVSSITGMDWYRQAPGKQREWVATITRNNIAMYGASVKGRFTVSRDDAKNTWYLQMNSLKPEDTAVYYCTYHGNWGQGTQVTVSS | –
0.152 ± 0.001 nM | – | – | anti-mTIGIT nanobody 16972 (VHH, Cloned into pHen6 after PCR with primers A6E and PMCF; also called Nb 16972; source: E. coli WK6, periplasmic extract, purified (Ni-NTA, SEC); not shown: His6, C-terminal, kept) VHH: QVQLQESGGGLVQTGESLRLSCAASSVSSITGMDWYRQAPGKQREWVATITRNNIAMYGASVKGRFTVSRDNAKNTWYLQMNSLKPEDTAVYYCTYRGNWGQGTQVTVSS | –
– | – | – | single-chain variable fragment derived from the monoclonal antibody Vibostolimab (scFv, V domains shown, VH of the mAb Vibostolimab (Merck); (G4S)3 linker, written out from the printed formula; VL of the mAb Vibostolimab (Merck); Cloned into pHen6 by Gibson assembly; also called scFv Vibo; Vibo scFv; source: E. coli WK6, periplasmic extract, purified (Ni-NTA, SEC), produced in the same way as the Nbs; not shown: His6, C-terminal, kept) VH: EVQLVQSGAEVKKPGSSVKVSCKASGYTFSSYVMHWVRQAPGQGLEWIGYIDPYNDGAKYAQKFQGRVTLTSDKSTSTAYMELSSLRSEDTAVYYCARGGPYGWYFDVWGQGTTVTVSS VL: DIQMTQSPSSLSASVGDRVTITCRASEHIYSYLSWYQQKPGKVPKLLIYNAKTLAEGVPSRFSGSGSGTDFTLTISSLQPEDVATYYCQHHFGSPLTFGQGTRLEIK | Kd [1]: 0.996 ± 0.004 nM
– | – | – | single-chain variable fragment derived from the monoclonal antibody Vibostolimab (scFv, V domains shown, variable domain of the heavy chain (VH) of Vibostolimab (Merck); (G4S)3 linker; variable domain of the light chain (VL) of Vibostolimab (Merck); Cloned in pHen6; also called ScFv Vibo; Vibo scFv; source: E. coli WK6, periplasmic extract, purified (Ni-NTA, SEC), produced in the same way as the Nbs; not shown: His6, C-terminal, kept) VH: EVQLVQSGAEVKKPGSSVKVSCKASGYTFSSYVMHWVRQAPGQGLEWIGYIDPYNDGAKYAQKFQGRVTLTSDKSTSTAYMELSSLRSEDTAVYYCARGGPYGWYFDVWGQGTTVTVSS VL: DIQMTQSPSSLSASVGDRVTITCRASEHIYSYLSWYQQKPGKVPKLLIYNAKTLAEGVPSRFSGSGSGTDFTLTISSLQPEDVATYYCQHHFGSPLTFGQGTRLEIK | koff [2]: 0.000827 s⁻¹; kon [2]: 830000 M⁻¹ s⁻¹
